Reference: the supplement of paper PMC9732359
± gives the uncertainty stated by the source.

Assay: protein stability index of a GFP-peptide fusion (yeast GPS) (PSI 1-4); higher = more stable; sorted into four equal gates, so the index is relative within each strain
Method in brief: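 Tiled yeast protein peptides of 17 residues were each joined downstream of GFP, on plasmids that also express Cherry. The pooled library was maintained in yeast, and mid-log cultures in leucine-free medium were sorted into four equal gates on the GFP/Cherry ratio. Plasmids from every gate were amplified by PCR and sequenced on Illumina, with barcodes linking reads to strains. The protein stability index of a peptide is its gate-number-weighted read frequency summed over the gates.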

Sequence | protein stability index (doa10∆) | protein stability index (pdr5∆) | protein stability index (san1∆) | protein stability index (ubr1∆)
IITSGRDTREVLEERER [ARP9] | 3.41 ± 0.16 | 3.36 ± 0.14 | 3.52 ± 0.065 | 3.52 ± 0.1
SGRTVISPDPNLSIDEV [RPO31] | 2.4 ± 0.063 | 1.97 ± 0.06 | 2.03 ± 0.099 | 1.92 ± 0.057
SLLDKPDEAIEKVFNAY [FAS1] | 3.15 ± 0.085 | 3.34 ± 0.099 | 3.2 ± 0.066 | 3.29 ± 0.078
SNMFDNSADVDMDAQGR [YGL100W/SEH1] | 3.42 ± 0.085 | 3.55 ± 0.076 | 3.5 ± 0.057 | 3.29 ± 0.062
MLRTVTSKTVSNQFKRS [COR1] | 3.11 ± 0.15 | 2.9 ± 0.092 | 2.92 ± 0.083 | 3.02 ± 0.1
MLVDLNVPWPQNSYADK [RPP1] | 1.59 ± 0.27 | 1.08 ± 0.14 |  | 1.12 ± 0.15
LELQVAQAFVELENSSP [RPS7A] | 3.15 ± 0.14 | 3.14 ± 0.15 | 2.92 ± 0.19 | 1.85 ± 0.11
VDVAKDINVKDLKASQR [RPT6] | 3.35 ± 0.14 | 3.13 ± 0.11 | 2.63 ± 0.18 | 3.22 ± 0.098
SQQAGLDPYERAIYSYL [YDL116W/NUP84] | 2.81 ± 0.12 | 3.19 ± 0.083 |  | 2.83 ± 0.099
LGQERATDLAGPANNPN [PRP8] | 2.94 ± 0.048 | 3.04 ± 0.068 | 2.95 ± 0.053 | 3.17 ± 0.057
EVIFTDVLKSQANTEPE [MCD1] | 3.07 ± 0.21 | 3.08 ± 0.12 | 2.97 ± 0.088 | 2.95 ± 0.12
RKILKKTFKNPKYESLK [RPN5] | 2.87 ± 0.094 | 2.96 ± 0.07 | 3.18 ± 0.094 | 3.19 ± 0.062
SNRLHPPDIHPNLGPQL [GRR1] | 3.12 ± 0.074 | 3.09 ± 0.059 | 3.01 ± 0.054 | 2.98 ± 0.049
MSFIFPSYAERQSSDES [YML031W/NDC1] | 2.58 ± 0.051 | 2.04 ± 0.048 | 2.74 ± 0.066 | 2.5 ± 0.046
NRIIKADDHASVQINVA [RPS21A] | 2.89 ± 0.055 | 3.05 ± 0.052 | 2.99 ± 0.052 | 3.11 ± 0.039
KLLDSGCENPADVFRRC [SRP72] | 2.46 ± 0.058 | 1.72 ± 0.047 | 2.13 ± 0.1 | 2.16 ± 0.071
KLEYPHTDVSSSLEARY [RPN3] | 2.76 ± 0.066 | 3.01 ± 0.073 | 2.75 ± 0.077 | 2.9 ± 0.086
LGILKKKRFDEFMAGFN [SMC4] | 2.15 ± 0.11 | 2.15 ± 0.13 | 1.88 ± 0.19 | 1.87 ± 0.078
TELLNIYDSEDPQQVFD [RPN3] | 2.88 ± 0.1 | 3.13 ± 0.078 | 3.15 ± 0.084 | 2.87 ± 0.058
ATRTLVASIQNDPSAEV [YCG1] |  | 3.41 ± 0.16 | 2.79 ± 0.27 | 
ASFGKNLQIRQLFNWCL [DSN1] | 1.2 ± 0.064 | 1.44 ± 0.051 | 1.29 ± 0.15 | 2.33 ± 0.12
FPTTSHESLVTTLLRKK [MED8] | 2.12 ± 0.12 | 1.82 ± 0.12 | 1.72 ± 0.14 | 1.95 ± 0.12

Sequence | protein stability index (doa10∆) | protein stability index (pdr5∆) | protein stability index (san1∆) | protein stability index (ubr1∆)
SPMLKRIKITANNNMND [GRR1] | 2.36 ± 0.055 | 2.4 ± 0.078 | 1.77 ± 0.079 | 2.71 ± 0.048
PGQKMSLFSHRKHTRGD [BRN1] | 3.34 ± 0.23 | 2.95 ± 0.21 | 3.31 ± 0.15 | 3.22 ± 0.062
ALRDVKNNNNANNNGSN [GAL11] | 3.33 ± 0.095 | 2.95 ± 0.14 | 3.13 ± 0.12 | 3.41 ± 0.11
TAVSFVSAAEDESLIRE [PRP28] | 2.77 ± 0.093 | 3.27 ± 0.15 | 3.04 ± 0.16 | 2.2 ± 0.15
IIDEIITQMRVNDEEEH [RPC82] | 3 ± 0.084 | 2.54 ± 0.071 | 3.54 ± 0.12 | 2.19 ± 0.079
EHASLLVRDSKPSKPFN [MED8] | 2.43 ± 0.057 | 2.67 ± 0.046 | 2.56 ± 0.05 | 2.55 ± 0.052
QNISPVYSVDPLEKITD [PRP8] | 2.94 ± 0.083 | 2.9 ± 0.084 | 2.86 ± 0.054 | 2.85 ± 0.079
DDKVSVVEKEKIESLAG [UBP6] | 3.31 ± 0.2 | 2.84 ± 0.24 | 2.89 ± 0.17 | 3.37 ± 0.14
ANDFQLTIVTCKQFPKL [SRB8] | 1.83 ± 0.047 | 1.96 ± 0.041 | 1.82 ± 0.073 | 1.82 ± 0.034
TTTRIQSQQAQPSDVMF [MED2] | 2.91 ± 0.061 | 2.79 ± 0.057 | 3 ± 0.063 | 2.87 ± 0.043
KILEQFEYVLYPSKTLK [FAS2] | 3.01 ± 0.078 | 2.93 ± 0.069 | 2.97 ± 0.077 | 3.15 ± 0.064
SVIPLKGRYAPETGDHV [RRP4] | 2.53 ± 0.059 | 2.52 ± 0.052 | 2.67 ± 0.073 | 2.69 ± 0.041
VCFNNLVDENTDYLYRR [YCS4] | 2.61 ± 0.067 | 2.56 ± 0.05 | 2.48 ± 0.081 | 2.08 ± 0.037
LKNTMQYLTNFSRFRDQ [RPB4] | 3.09 ± 0.12 | 2.97 ± 0.17 | 3.1 ± 0.087 | 3.19 ± 0.074
LKTNGKQNNKDFRTRYI [MTW1] | 2.75 ± 0.059 | 2.84 ± 0.065 | 2.52 ± 0.081 | 2.51 ± 0.059
RVIIQELRFPSPTPIQR [PRP28] | 2.57 ± 0.15 | 2.58 ± 0.15 | 2.41 ± 0.14 | 
DMVMATVKKGKPELRKK [RPL23A] | 3.49 ± 0.15 | 3.35 ± 0.18 | 3.54 ± 0.1 | 3.22 ± 0.11
KPHGLAARVDIGQIIFS [RPL10] | 2.31 ± 0.058 | 2.13 ± 0.037 | 1.72 ± 0.082 | 2.15 ± 0.036
PKSTKGKILTIKQQQQQ [YML103C/NUP188] | 2.39 ± 0.038 | 2.59 ± 0.046 | 2.42 ± 0.062 | 2.52 ± 0.04
EAVVDQDVQRTCILHGP [FAS1] | 3.32 ± 0.11 | 3.24 ± 0.087 | 3.17 ± 0.078 | 3.38 ± 0.051
PLPTPFKVDDNVDFPSA [RPN2] | 2.94 ± 0.054 | 2.75 ± 0.043 | 2.6 ± 0.074 | 2.63 ± 0.052
